Laboratory results taken from PMC9349188 (Nature Communications, 2022).

B1: ACS101 Y100fW mutant monoclonal antibody (IgG) (antibody, V domains shown)
VH: EVQLLESGAEVKKPGASVRVSCEASGYTFTKYFIHWVRQAPGHGLEWIGWINTLTSGVNYARNFQGRLTLTRDLSTETVYMDLRNLKSDDTAVYYCARGGRGYDEPWGAWTWLDPWGQGSLVTVSS
VL: SYELTQPASVSGSPGQSITISCTGSSIGSYDLVSWYQQYPGKAPKVIIFEVSKRPSGVSHRFSGSKSGNTAALTISGLQVEDEAIYHCYSYDDMIIFGGGTRLTVL
B2: ACS103 Fab (Fab, V domains shown)
VH: QVQLVQSGAEVKRPGASVRVSCEASGYRFTAYHIHWLRQAPGQGLEWMGWVNTLTSGVNYGWKFQGRVKMTRERSIDTDTAYLDLSGLRLDDTAVYYCARGNGKSDDERSTYQYFGPWGQGTLVTVSS
VL: QTVVTQPASVSGSPGQSITISCAGSSSDIGSYDYVSWYQQHPGKAPKVVIYDVTKRPSDISHRFSASKSGNTASLTISGLQPEDEAQYRCCTYAQTVLCGGGTKLTVL

Tests used:
[1] = molecular target: AMC009 SOSIP trimer (SOSIPv4.2) (HIV-1); test: cell-based or functional assay
[2] = molecular target: T1, AMC009 SOSIP trimer (SOSIP version not stated, negative stain EM) (HIV-1); test: negative stain electron microscopy; settings: both partners purified
T1 construct: copies: 3 + 3

Binder	neutralization of the AMC009 virus (TZM-bl cells), IC50 relative to ACS101 [1]	stoichiometry N [2]
B1	~12 fold	–
B2	–	3 Fabs per trimer
